Measurements from patent US20210317223A1 (DRAGONFLY THERAPEUTICS, published 2021).

T1: NKG2D (human, UniProt P26718 1-216)
T1 construct: whole, on cells; also called NKG2D receptor
T1 sequence (looked up): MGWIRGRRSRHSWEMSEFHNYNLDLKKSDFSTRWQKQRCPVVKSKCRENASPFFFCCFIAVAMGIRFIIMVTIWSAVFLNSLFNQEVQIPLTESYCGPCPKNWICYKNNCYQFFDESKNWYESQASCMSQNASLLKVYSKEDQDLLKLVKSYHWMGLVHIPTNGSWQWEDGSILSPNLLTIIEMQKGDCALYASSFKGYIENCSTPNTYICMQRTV

T2: B-cell maturation antigen (BCMA) (human, UniProt Q02223 1-184)
T2 construct: This is endogenous BCMA on human myeloma cell lines (KMS12-PE low, MM.1R high expression); the whole entry is used; also called surface BCMA
T2 sequence: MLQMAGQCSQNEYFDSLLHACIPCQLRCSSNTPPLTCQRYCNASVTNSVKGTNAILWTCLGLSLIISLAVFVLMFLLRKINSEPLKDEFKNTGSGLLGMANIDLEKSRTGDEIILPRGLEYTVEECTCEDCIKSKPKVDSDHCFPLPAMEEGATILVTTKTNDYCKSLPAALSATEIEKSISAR

B1: anti-BCMA monoclonal antibody MAB42 (antibody, V domains shown)
VH: EVQLLESGGGLVQPGGSLRLSCAASGFTFSDNAMGWVRQAPGKGLEWVSAISGPGSSTYYADSVKGRFTISRDNSKNTLYLQMNSLRAEDTAVYYCAKVLGWFDYWGQGTLVTVSS
VL: EIVLTQSPGTLSLSPGERATLSCRASQSVSDEYLSWYQQKPGQAPRLLIHSASTRATGIPDRFSGSGSGTDFTLAISRLEPEDFAVYYCQQYGYPPDFTFGQGTKVEIK
notes: also called anti-BCMA mAb; BCMA mAb
B2: NKG2D-binding-F4-TriNKET-BCMA (bispecific antibody, human IgG1, kappa)
heavy 1: EVQLLESGGGLVQPGGSLRLSCAASGFTFSDNAMGWVRQAPGKGLEWVSAISGPGSSTYYADSVKGRFTISRDNSKNTLYLQMNSLRAEDTAVYYCAKVLGWFDYWGQGTLVTVSSASTKGPSVFPLAPSSKSTSGGTAALGCLVKDYFPEPVTVSWNSGALTSGVHTFPAVLQSSGLYSLSSVVTVPSSSLGTQTYICNVNHKPSNTKVDKKVEPKSCDKTHTCPPCPAPELLGGPSVFLFPPKPKDTLMISRTPEVTCVVVDVSHEDPEVKFNWYVDGVEVHNAKTKPREEQYNSTYRVVSVLTVLHQDWLNGKEYKCKVSNKALPAPIEKTISKAKGQPREPRVYTLPPCRDELTKNQVSLTCLVKGFYPSDIAVEWESNGQPENNYKTTPPVLVSDGSFTLYSKLTVDKSRWQQGNVFSCSVMHEALHNHYTQKSLSLSPGSGSGGGGSDIQMTQSPSSVSASVGDRVTITCRASQGISSWLAWYQQKPGKAPKLLIYAASSLQSGVPSRFSGSGSGTDFTLTISSLQPEDFATYYCQQGVSFPRTFGCGTKVEIKGGGGSGGGGSGGGGSGGGGSEVQLVESGGGLVKPGGSLRLSCAASGFTFSSYSMNWVRQAPGKCLEWVSSISSSSSYIYYADSVKGRFTISRDNAKNSLYLQMNSLRAEDTAVYYCARGAPMGAAAGWFDPWGQGTLVTVSS
heavy 2: EVQLLESGGGLVQPGGSLRLSCAASGFTFSDNAMGWVRQAPGKGLEWVSAISGPGSSTYYADSVKGRFTISRDNSKNTLYLQMNSLRAEDTAVYYCAKVLGWFDYWGQGTLVTVSSASTKGPSVFPLAPSSKSTSGGTAALGCLVKDYFPEPVTVSWNSGALTSGVHTFPAVLQSSGLYSLSSVVTVPSSSLGTQTYICNVNHKPSNTKVDKKVEPKSCDKTHTCPPCPAPELLGGPSVFLFPPKPKDTLMISRTPEVTCVVVDVSHEDPEVKFNWYVDGVEVHNAKTKPREEQYNSTYRVVSVLTVLHQDWLNGKEYKCKVSNKALPAPIEKTISKAKGQPREPQVCTLPPSRDELTENQVSLTCLVKGFYPSDIAVEWESNGQPENNYKTTPPVLDSDGSFFLYSWLTVDKSRWQQGNVFSCSVMHEALHNHYTQKSLSLSPG
light: EIVLTQSPGTLSLSPGERATLSCRASQSVSDEYLSWYQQKPGQAPRLLIHSASTRATGIPDRFSGSGSGTDFTLAISRLEPEDFAVYYCQQYGYPPDFTFGQGTKVEIKRTVAAPSVFIFPPSDEQLKSGTASVVCLLNNFYPREAKVQWKVDNALQSGNSQESVTEQDSKDSTYSLSSTLTLSKADYEKHKVYACEVTHQGLSSPVTKSFNRGEC
notes: An A49 anti-NKG2D scFv sits at the C-terminus of one Fc chain; also called A49-F4-TriNKET-BCMA; NKG2D-F4-TriNKET-BCMA

Tests used:
[1] = biological target: T1, NKG2D; assay: flow cytometry on KHYG-1 parental (CD16-) cells expressing NKG2D, anti-human IgG secondary antibody, MFI
Method: (§1) The KHYG-1 human NK cell line was used to assess NKG2D binding of TriNKET NKG2D-binding-F4-TriNKET-BCMA. KHYG-1 cells transduced to express CD16-F158V were used to investigate the contribution of Fc CD16 binding. TriNKETs were diluted, and were incubated with KHYG-1 cells. Binding of the TriNKET was detected using a fluorophore conjugated anti-human IgG secondary antibody. Cells were analyzed by flow cytometry and Median Fluorescence Intensity (“MFI”) reported.

[2] = biological target: T3, CD16-F158V (UniProt P08637 17-254); assay: flow cytometry on KHYG-1 cells transduced with CD16-F158V (the cells also express NKG2D), anti-human IgG secondary antibody, MFI
T3 construct: whole, on cells; It is probably the mature protein, so it may not match the position on the precursor entry; The KHYG-1 cells also express NKG2D
T3 sequence (P08637 17-254 F176V): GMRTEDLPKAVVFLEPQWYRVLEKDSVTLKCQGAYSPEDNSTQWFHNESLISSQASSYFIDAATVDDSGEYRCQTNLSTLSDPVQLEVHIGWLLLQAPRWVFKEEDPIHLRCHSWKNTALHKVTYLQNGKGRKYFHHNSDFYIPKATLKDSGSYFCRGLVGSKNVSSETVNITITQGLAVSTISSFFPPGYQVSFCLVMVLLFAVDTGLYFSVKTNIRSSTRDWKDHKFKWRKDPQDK
Method: as §1

[3] = biological target: T2, B-cell maturation antigen (BCMA); assay: flow cytometry on KMS12-PE cells, 100 ug/mL, incubation times as labelled, anti-human IgG secondary antibody
Method: KMS12-PE or MM.1R cells were incubated with an anti-BCMA monoclonal antibody (MAB42), bivalent TriNKET (NKG2D-binding-F4-TriNKET-BCMA), or monovalent TriNKET (A49-DB-TriNKET-BCMA). A49-DB-TriNKET-BCMA is a TriNKET in which the first antigen-binding site comprises an Fab that binds NKG2D and the second antigen-binding site comprises an Fab that binds BCMA, each connected to an Fc domain, forming a bi-valent antibody (WO2018/148566).
To assess total surface BCMA, a saturating concentration of 100 μg/mL was used, whereas 100 ng/mL was selected to investigate sub-saturation surface stabilization. Each sample was divided into thirds, with an aliquot each placed on ice for 20 minutes, at 37° C. for 2 hours or 37° C. for 24 hours. After the incubation period cells were washed and bound TriNKET was detected using an anti-human IgG secondary antibody. After staining the cells were fixed and stored at 4° C., all samples were analyzed at the end of the study.

Row | binding result [1] | binding result [2] | binding result [3] | Binder
1 | no binding (tested: 100 ug/ml) | binds | binds | B1
2 | – | binds | binds | B2
